Assay results published in article PMC9482650, “Quantitative fragmentomics allow affinity mapping of interactomes” (Nature Communications, 2022).
Substitutions are numbered along the chain they refer to.

T1: MPP2, Q14168
T1 sequence (Q14168 180-250, limits assumed, looked up): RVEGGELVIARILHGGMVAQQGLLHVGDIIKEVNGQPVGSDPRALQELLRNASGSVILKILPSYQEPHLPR

T2: GRIP1_4, Q9Y3R0
T2 sequence (Q9Y3R0 467-571, limits assumed, looked up): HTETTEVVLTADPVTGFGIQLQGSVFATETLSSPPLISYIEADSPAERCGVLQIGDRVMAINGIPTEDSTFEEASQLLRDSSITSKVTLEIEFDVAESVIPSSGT

T3: LIN7C, Q9NUP9
T3 sequence (Q9NUP9 88-185, limits assumed, looked up): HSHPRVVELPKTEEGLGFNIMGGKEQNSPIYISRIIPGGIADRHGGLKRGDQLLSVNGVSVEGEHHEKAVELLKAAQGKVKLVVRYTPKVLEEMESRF

T4: FRMPD1, Q5SYB0
T4 sequence (Q5SYB0 52-145, limits assumed, looked up): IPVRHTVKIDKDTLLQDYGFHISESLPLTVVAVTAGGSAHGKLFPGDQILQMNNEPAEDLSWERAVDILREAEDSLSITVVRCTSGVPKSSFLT

T5: LIN7B, Q9HAP6
T5 sequence (Q9HAP6 88-185, limits assumed, looked up): T3 sequence (Q9NUP9 88-185, limits assumed, looked up) with S2A, E13D, I35V, I40V, H65Q, K79S, K89R, S96A

T6: PDZD2_2, O15018
T6 sequence (O15018 329-429, limits assumed, looked up): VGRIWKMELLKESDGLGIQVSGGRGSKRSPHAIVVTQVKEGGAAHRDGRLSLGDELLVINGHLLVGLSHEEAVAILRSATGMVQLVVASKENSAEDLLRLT

T7: ARHGAP21, Q5T5U3
T7 sequence (Q5T5U3 45-169, limits assumed, looked up): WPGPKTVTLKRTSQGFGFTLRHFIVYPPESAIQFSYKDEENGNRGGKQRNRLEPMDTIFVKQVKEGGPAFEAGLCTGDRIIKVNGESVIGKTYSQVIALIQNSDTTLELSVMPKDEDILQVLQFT

T8: HTRA4, P83105
T8 sequence (P83105 378-476, limits assumed, looked up): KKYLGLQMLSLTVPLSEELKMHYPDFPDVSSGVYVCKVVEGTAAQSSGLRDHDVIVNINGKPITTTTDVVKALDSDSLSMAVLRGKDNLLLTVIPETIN

T9: LNX2_3, Q8N448
T9 sequence (Q8N448 463-564, limits assumed, looked up): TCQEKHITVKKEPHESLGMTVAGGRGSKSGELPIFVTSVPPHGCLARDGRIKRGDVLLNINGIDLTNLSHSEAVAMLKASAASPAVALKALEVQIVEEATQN

T10: CARD11, Q9BXL7
T10 sequence (Q9BXL7 662-765, limits assumed, looked up): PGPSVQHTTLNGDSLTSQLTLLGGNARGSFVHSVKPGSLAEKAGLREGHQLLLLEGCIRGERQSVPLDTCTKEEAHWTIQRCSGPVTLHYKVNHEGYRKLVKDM

T11: PDZD7_3, Q9H5P4
T11 sequence (Q9H5P4 857-944, limits assumed, looked up): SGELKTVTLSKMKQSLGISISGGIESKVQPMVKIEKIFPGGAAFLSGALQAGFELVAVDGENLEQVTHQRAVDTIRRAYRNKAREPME

B1: FAM71C, Q8NEG0 (peptide)
chain: STYCDYTIEI
B2: NPSR1, Q6W5P4 (peptide)
chain: MQILSKPEFI
B3: FCHSD2, O94868 (peptide)
chain: KIEDVEITLV
B4: TRPM1, Q7Z4N2 (peptide)
chain: KEKASTETEC
B5: POLR1D, P0DPB6 (peptide)
chain: QKASRNESTF

Columns and labels:
Assay in all cases: holdup assay
Set-up in all cases: key: below the threshold = too weak to quantify, mostly under pKd 3.1 to 4
Details in all cases: plain residues with an end cap or a label only (N-terminal biotin on a linker: ado-ado)
MPP2, Q14168 = biological target: T1, MPP2, Q14168
GRID2IP_1, A4D2P6 = biological target: GRID2IP_1, A4D2P6
Chain of GRID2IP_1, A4D2P6 (A4D2P6 1-87): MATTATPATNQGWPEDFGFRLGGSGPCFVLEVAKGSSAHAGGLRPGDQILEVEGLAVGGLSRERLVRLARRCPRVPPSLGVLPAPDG

Inadl_1, Q8NI35 = biological target: Inadl_1, Q8NI35
Chain of Inadl_1, Q8NI35 (Q8NI35 113-229): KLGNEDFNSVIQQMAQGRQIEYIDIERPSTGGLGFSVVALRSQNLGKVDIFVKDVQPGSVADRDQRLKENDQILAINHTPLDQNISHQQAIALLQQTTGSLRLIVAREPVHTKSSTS

IL16_4, Q14005 = biological target: IL16_4, Q14005
Chain of IL16_4, Q14005 (Q14005 1229-1329): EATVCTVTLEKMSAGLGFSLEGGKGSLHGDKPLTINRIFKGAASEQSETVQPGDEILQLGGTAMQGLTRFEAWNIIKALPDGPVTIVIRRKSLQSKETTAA

GRIP1_4, Q9Y3R0 = biological target: T2, GRIP1_4, Q9Y3R0
LIN7C, Q9NUP9 = biological target: T3, LIN7C, Q9NUP9
FRMPD1, Q5SYB0 = biological target: T4, FRMPD1, Q5SYB0
Inadl_3, Q8NI35 = biological target: Inadl_3, Q8NI35
Chain of Inadl_3, Q8NI35 (Q8NI35 359-469): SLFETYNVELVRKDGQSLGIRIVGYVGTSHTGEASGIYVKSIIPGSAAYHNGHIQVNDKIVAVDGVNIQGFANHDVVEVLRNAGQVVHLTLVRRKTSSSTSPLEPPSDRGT

MAGI2_5, Q86UL8 = biological target: MAGI2_5, Q86UL8
Chain of MAGI2_5, Q86UL8 (Q86UL8 915-1017): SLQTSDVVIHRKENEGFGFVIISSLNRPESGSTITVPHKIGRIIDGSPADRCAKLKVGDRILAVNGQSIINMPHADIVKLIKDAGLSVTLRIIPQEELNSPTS

LIN7B, Q9HAP6 = biological target: T5, LIN7B, Q9HAP6
AHNAK1, Q09666 = biological target: AHNAK1, Q09666
Chain of AHNAK1, Q09666 (Q09666 4-100): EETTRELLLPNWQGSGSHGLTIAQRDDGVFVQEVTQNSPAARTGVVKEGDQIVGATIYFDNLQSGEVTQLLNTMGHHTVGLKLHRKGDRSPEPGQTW

NHERF4_4, Q86UT5 = biological target: NHERF4_4, Q86UT5
Chain of NHERF4_4, Q86UT5 (Q86UT5 464-550): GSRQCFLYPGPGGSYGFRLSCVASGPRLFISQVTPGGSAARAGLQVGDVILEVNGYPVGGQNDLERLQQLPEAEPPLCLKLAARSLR

LNX1_3, Q8TBB1 = biological target: LNX1_3, Q8TBB1
Chain of LNX1_3, Q8TBB1 (Q8TBB1 500-596): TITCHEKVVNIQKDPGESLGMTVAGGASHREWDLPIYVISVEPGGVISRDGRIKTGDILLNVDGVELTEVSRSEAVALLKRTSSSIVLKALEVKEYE

PDZD2_2, O15018 = biological target: T6, PDZD2_2, O15018
Inadl_6, Q8NI35 = biological target: Inadl_6, Q8NI35
Chain of Inadl_6, Q8NI35 (Q8NI35 1058-1167): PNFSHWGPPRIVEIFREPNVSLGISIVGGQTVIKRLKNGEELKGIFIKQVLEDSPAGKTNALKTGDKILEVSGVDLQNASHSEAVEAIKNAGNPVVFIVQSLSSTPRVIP

FRMPD2_2, Q68DX3 = biological target: FRMPD2_2, Q68DX3
Chain of FRMPD2_2, Q68DX3 (Q68DX3 944-1038): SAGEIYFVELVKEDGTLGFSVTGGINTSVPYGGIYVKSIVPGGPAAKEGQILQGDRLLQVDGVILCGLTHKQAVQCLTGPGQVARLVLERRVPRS

ARHGAP21, Q5T5U3 = biological target: T7, ARHGAP21, Q5T5U3
MAST2, Q6P0Q8 = biological target: MAST2, Q6P0Q8
Chain of MAST2, Q6P0Q8 (Q6P0Q8 1099-1202): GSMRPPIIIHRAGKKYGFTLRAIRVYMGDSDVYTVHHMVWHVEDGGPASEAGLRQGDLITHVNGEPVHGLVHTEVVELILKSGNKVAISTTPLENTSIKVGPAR

HTRA4, P83105 = biological target: T8, HTRA4, P83105
FRMPD2_1, Q68DX3 = biological target: FRMPD2_1, Q68DX3
Chain of FRMPD2_1, Q68DX3 (Q68DX3 770-861): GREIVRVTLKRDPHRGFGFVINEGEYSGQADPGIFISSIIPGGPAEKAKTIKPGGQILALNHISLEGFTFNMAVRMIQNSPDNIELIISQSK

LNX2_3, Q8N448 = biological target: T9, LNX2_3, Q8N448
CARD11, Q9BXL7 = biological target: T10, CARD11, Q9BXL7
PDZD7_3, Q9H5P4 = biological target: T11, PDZD7_3, Q9H5P4
DLG4_2, P78352 = biological target: DLG4_2, P78352
Chain of DLG4_2, P78352 (P78352 155-259): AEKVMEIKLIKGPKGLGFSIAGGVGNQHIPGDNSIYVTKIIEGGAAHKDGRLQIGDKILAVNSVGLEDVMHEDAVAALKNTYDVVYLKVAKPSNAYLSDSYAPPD

NHERF4_1, Q86UT5-2 = biological target: NHERF4_1, Q86UT5-2
Chain of NHERF4_1, Q86UT5-2 (Q86UT5 other isoform, or with tags, fused parts or gaps): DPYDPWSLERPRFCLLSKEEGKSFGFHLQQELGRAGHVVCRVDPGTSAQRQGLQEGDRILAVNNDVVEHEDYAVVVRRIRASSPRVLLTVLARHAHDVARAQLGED

Inadl_9, Q8NI35 = biological target: Inadl_9, Q8NI35
Chain of Inadl_9, Q8NI35 (Q8NI35 1530-1615): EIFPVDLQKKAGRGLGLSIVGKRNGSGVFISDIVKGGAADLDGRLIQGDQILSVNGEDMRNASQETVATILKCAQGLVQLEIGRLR

Inadl_8, Q8NI35 = biological target: Inadl_8, Q8NI35
Chain of Inadl_8, Q8NI35 (Q8NI35 1425-1530): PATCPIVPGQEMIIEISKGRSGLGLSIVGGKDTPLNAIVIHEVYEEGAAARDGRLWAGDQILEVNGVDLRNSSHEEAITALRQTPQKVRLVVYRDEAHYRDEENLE

Binder	pKd (MPP2, Q14168)	pKd (GRID2IP_1, A4D2P6)	pKd (Inadl_1, Q8NI35)	pKd (IL16_4, Q14005)	pKd (GRIP1_4, Q9Y3R0)	pKd (LIN7C, Q9NUP9)	pKd (FRMPD1, Q5SYB0)	pKd (Inadl_3, Q8NI35)	pKd (MAGI2_5, Q86UL8)	pKd (LIN7B, Q9HAP6)	pKd (AHNAK1, Q09666)	pKd (NHERF4_4, Q86UT5)	pKd (LNX1_3, Q8TBB1)	pKd (PDZD2_2, O15018)	pKd (Inadl_6, Q8NI35)	pKd (FRMPD2_2, Q68DX3)	pKd (ARHGAP21, Q5T5U3)	pKd (MAST2, Q6P0Q8)	pKd (HTRA4, P83105)	pKd (FRMPD2_1, Q68DX3)	also measured
B1	below the threshold	below the threshold	3.56	below the threshold	below the threshold	below the threshold	below the threshold	5	below the threshold	below the threshold	below the threshold	4.68	below the threshold	4.69	below the threshold	below the threshold	4.13	5.12	4.96	below the threshold	pKd (LNX2_3, Q8N448): below the threshold; pKd (CARD11, Q9BXL7): below the threshold; pKd (PDZD7_3, Q9H5P4): 3.55; pKd (DLG4_2, P78352): below the threshold; pKd (NHERF4_1, Q86UT5-2): below the threshold; pKd (Inadl_9, Q8NI35): 4.19; pKd (Inadl_8, Q8NI35): below the threshold
B2	below the threshold	below the threshold	below the threshold	3.7	below the threshold	below the threshold	below the threshold	below the threshold	below the threshold	3.81	below the threshold	below the threshold	below the threshold	3.62	below the threshold	below the threshold	below the threshold	below the threshold	4.38	below the threshold	pKd (LNX2_3, Q8N448): below the threshold; pKd (CARD11, Q9BXL7): below the threshold; pKd (PDZD7_3, Q9H5P4): below the threshold; pKd (DLG4_2, P78352): below the threshold; pKd (NHERF4_1, Q86UT5-2): 3.62; pKd (Inadl_9, Q8NI35): 3.64; pKd (Inadl_8, Q8NI35): below the threshold
B3	below the threshold	below the threshold	below the threshold	below the threshold	below the threshold	4.11	below the threshold	4.43	5.47	below the threshold	below the threshold	below the threshold	below the threshold	4.64	4.23	4.76	4.01	5.63	4.54	below the threshold	pKd (LNX2_3, Q8N448): below the threshold; pKd (CARD11, Q9BXL7): below the threshold; pKd (PDZD7_3, Q9H5P4): 5.46; pKd (DLG4_2, P78352): 4.2; pKd (NHERF4_1, Q86UT5-2): 3.73; pKd (Inadl_9, Q8NI35): 3.68; pKd (Inadl_8, Q8NI35): 3.99
B4	below the threshold	below the threshold	below the threshold	below the threshold	below the threshold	3.93	below the threshold	below the threshold	below the threshold	3.77	below the threshold	below the threshold	below the threshold	below the threshold	below the threshold	below the threshold	3.97	4.78	below the threshold	below the threshold	pKd (LNX2_3, Q8N448): below the threshold; pKd (CARD11, Q9BXL7): below the threshold; pKd (PDZD7_3, Q9H5P4): below the threshold; pKd (DLG4_2, P78352): 3.9; pKd (NHERF4_1, Q86UT5-2): 3.66; pKd (Inadl_9, Q8NI35): below the threshold; pKd (Inadl_8, Q8NI35): below the threshold
B5	below the threshold	below the threshold	below the threshold	below the threshold	below the threshold	below the threshold	below the threshold	below the threshold	below the threshold	3.96	below the threshold	3.81	below the threshold	below the threshold	below the threshold	below the threshold	below the threshold	4.95	below the threshold	below the threshold	pKd (LNX2_3, Q8N448): below the threshold; pKd (CARD11, Q9BXL7): below the threshold; pKd (PDZD7_3, Q9H5P4): 3.71; pKd (DLG4_2, P78352): below the threshold; pKd (NHERF4_1, Q86UT5-2): below the threshold; pKd (Inadl_9, Q8NI35): below the threshold; pKd (Inadl_8, Q8NI35): below the threshold
